Laboratory results: patent publication US20250320312A1 (OXITOPE PHARMA B V, published 2025)
Where a chain is given by its changes, count along the chain named.

T1: Peptide 4: Biotin-AGGGGSGGGGSGGGGSAAA-Tyr-acid (N-terminal biotin; C-terminal acid)
T1 construct: control peptide without PC
T1 peptide: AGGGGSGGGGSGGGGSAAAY

T2: Peptide 8: Biotin-AEAAAKEAAAKEAAAKEAAAKAAA-Tyr-acid (N-terminal biotin; C-terminal acid)
T2 construct: control peptide without PC
T2 peptide: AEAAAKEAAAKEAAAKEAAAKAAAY

B1: PcOxP_DB02_C11 (scFv, V domains shown)
VH: EVQLLESGGGLVQPGGSLRLSCAASGFTSSDFYMEWVRQAPGKGLEWVAASRNKANDYYTEYADSVKGRFTISRDNSKNTLYLQMNSLRAEDTAVYYCARDYYGSSYWYFDVWGQGTLVTVSS
VL: DIQMTQSPSSLSASVGDRVTITCTASESLYSSKHKVHYLAWYQQKPGKAPKLLIYGASNRYIGVPSRFSGSGSGTDFTLTISSLQPEDFATYYCAQFYSYPLTFGGGTKVEIK
notes: scFv in periplasmic extract
B2: PcOxP_DB02_D09 (scFv, V domains shown)
VH: B1 VH with S29F, D31T, Y59T
VL: B1 VL with I62G, S99E
notes: scFv in periplasmic extract
B3: PcOxP_DB03_C12 (scFv, V domains shown)
VH: B1 VH with S29F, F32Y, Y59T
VL: B1 VL with I62G
notes: scFv in periplasmic extract
B4: PcOxP_DB02_G07 (scFv, V domains shown)
VH: B1 VH with S29F, F32G, Y59T
VL: B1 VL with I62G
notes: scFv in periplasmic extract
B5: PcOxP_DB02_H03 (scFv, V domains shown)
VH: B1 VH with S29F, Y59T
VL: B1 VL with L29I, Y30S, R60L, I62S, Q96H
notes: scFv in periplasmic extract
B6: PcOxP_DB02_E01 (scFv, V domains shown)
VH: B1 VH with S29F, F32Q, Y59T
VL: B1 VL with N59G
notes: scFv in periplasmic extract
B7: PcOxP_DB03_A03 (scFv, V domains shown)
VH: B1 VH with S29F, Y59T
VL: B1 VL with N59F
notes: scFv in periplasmic extract
B8: PcOxP_DB03_D01 (scFv, V domains shown)
VH: B1 VH with S29F, F32E, Y59T
VL: B1 VL with S99Y
notes: scFv in periplasmic extract
B9: PcOxP_DB03_B02 (scFv, V domains shown)
VH: B1 VH with T28A, S29F, Y59T
VL: B1 VL with I62D, S99E
notes: scFv in periplasmic extract
B10: PcOxP_DB03_D11 (scFv, V domains shown)
VH: B1 VH with S29F, Y59T, S105H
VL: B1 VL with N59S, S99E
notes: scFv in periplasmic extract
B11: PcOxP_DB03_A09 (scFv, V domains shown)
VH: B1 VH with S29F, F32Y, Y59T
VL: B1 VL with Y61G
notes: scFv in periplasmic extract
B12: PcOxP_DB03_D08 (scFv, V domains shown)
VH: B1 VH with T28W, S29F, Y59T, S106A
VL: B1 VL
notes: scFv in periplasmic extract
B13: PcOxP_DB03_E02 (scFv, V domains shown)
VH: B1 VH with F27W, S29F, Y59T
VL: B1 VL with S32Q, S99Y
notes: scFv in periplasmic extract
B14: PcOxP_DB02_G09 (scFv, V domains shown)
VH: B1 VH with S29F, F32Q, Y59T
VL: B1 VL with Y61P
notes: scFv in periplasmic extract
B15: PcOxP_DB02_D01 (scFv, V domains shown)
VH: B1 VH with T28G, S29F, N53H, Y59T
VL: B1 VL with S99W
notes: scFv in periplasmic extract
B16: PcOxP_DB03_C11 (scFv, V domains shown)
VH: B1 VH with T28D, S29F, Y59T, E61D, Y103F
VL: B1 VL with I62Q, S99F
notes: scFv in periplasmic extract
B17: PcOxP_DB02_F02 (scFv, V domains shown)
VH: B1 VH with S29F, Y59T
VL: B1 VL with T24F, Y61G
notes: scFv in periplasmic extract
B18: PcOxP_DB02_F12 (scFv, V domains shown)
VH: B1 VH with S29F, F32A, Y59T
VL: B1 VL with T24E, I62P, S99E
notes: scFv in periplasmic extract
B19: PcOxP_DB03_A08 (scFv, V domains shown)
VH: B1 VH with S29F, F32V, Y59T
VL: B1 VL
notes: scFv in periplasmic extract
B20: PcOxP_DB02_F07 (scFv, V domains shown)
VH: B1 VH with T28W, S29F, Y59T
VL: B1 VL with E27Q, H34N, A57E
notes: scFv in periplasmic extract
B21: PcOxP_DB03_D07 (scFv, V domains shown)
VH: B1 VH with S29F, F32V, Y59T
VL: B1 VL with I62S, S99K
notes: scFv in periplasmic extract
B22: PcOxP_DB03_C03 (scFv, V domains shown)
VH: B1 VH with S29F, A55Y, Y59T
VL: B1 VL
notes: scFv in periplasmic extract
B23: PcOxP_DB02_G06 (scFv, V domains shown)
VH: B1 VH with S29F, D31S, F32Y, K54Q, Y59T, S106P
VL: B1 VL with A57V
notes: scFv in periplasmic extract
B24: PcOxP_DB03_C06 (scFv, V domains shown)
VH: B1 VH with F27A, S29F, K54G, Y59T, S105N
VL: B1 VL with Y61Q, I62S, S99V
notes: scFv in periplasmic extract
B25: PcOxP_DB02_E10 (scFv, V domains shown)
VH: B1 VH with S29F, F32Q, Y59Q
VL: B1 VL with S32G, R60L, Y61Q, S99Y
notes: scFv in periplasmic extract
B26: PcOxP_DB03_A11 (scFv, V domains shown)
VH: B1 VH with S29F, D31S, F32Y, K54Q, Y59T, F110L
VL: B1 VL with S58D, S99H
notes: scFv in periplasmic extract
B27: PcOxP_DB03_E01 (scFv, V domains shown)
VH: B1 VH with S29F, F32Y, Y59T, T60V
VL: B1 VL with A57T, S99E
notes: scFv in periplasmic extract
B28: PcOxP_DB02_H10 (scFv, V domains shown)
VH: B1 VH with S29F, F32Y, Y59T
VL: B1 VL with S58G, S99E
notes: scFv in periplasmic extract
B29: PcOxP_DB02_D10 (scFv, V domains shown)
VH: B1 VH with S29F, F32Q, Y59T
VL: B1 VL with S26T, I62T
notes: scFv in periplasmic extract

Molecular target: BSA (UniProt P02769)
Assay: scFv ELISA

Sequence of BSA (P02769 25-607 limits assumed): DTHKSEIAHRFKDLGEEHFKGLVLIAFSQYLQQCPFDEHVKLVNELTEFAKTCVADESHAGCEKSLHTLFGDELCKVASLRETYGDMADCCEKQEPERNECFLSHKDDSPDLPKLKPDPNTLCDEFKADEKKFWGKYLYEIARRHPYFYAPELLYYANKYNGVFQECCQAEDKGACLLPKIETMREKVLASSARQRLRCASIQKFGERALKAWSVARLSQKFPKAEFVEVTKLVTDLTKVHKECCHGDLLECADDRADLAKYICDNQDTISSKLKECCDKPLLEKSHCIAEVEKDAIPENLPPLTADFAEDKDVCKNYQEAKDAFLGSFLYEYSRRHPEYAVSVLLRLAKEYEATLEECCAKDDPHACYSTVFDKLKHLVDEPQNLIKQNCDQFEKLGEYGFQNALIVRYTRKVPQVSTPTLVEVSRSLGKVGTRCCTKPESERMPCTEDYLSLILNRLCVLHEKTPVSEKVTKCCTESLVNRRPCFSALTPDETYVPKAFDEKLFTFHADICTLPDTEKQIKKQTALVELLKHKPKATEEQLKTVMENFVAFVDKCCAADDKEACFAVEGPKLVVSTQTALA

OD450 [OD450] | Binder
0.1 | B1
0.11 | B2
0.09 | B3
0.1 | B4
0.08 | B5
0.11 | B6
0.09 | B7
0.08 | B8
0.07 | B9
0.08 | B10
0.09 | B11
0.1 | B12
0.11 | B13
0.1 | B14
0.09 | B15
0.07 | B16
0.11 | B17
0.07 | B18
0.11 | B19
0.1 | B20
0.12 | B21
0.09 | B22
0.08 | B23
0.07 | B24
0.09 | B25
0.08 | B26
0.09 | B27
0.08 | B28
0.1 | B29

Molecular target: Peptide 1: Biotin-…-[Tyr(PC)]-acid
Assay: scFv ELISA

OD450 [OD450] | Binder
0.12 | B1
0.16 | B2
2.74 | B3
0.52 | B4
0.27 | B5
0.43 | B6
0.54 | B7
2.51 | B8
2.02 | B9
0.5 | B10
1.02 | B11
0.54 | B12
2 | B13
0.35 | B14
0.31 | B15
1.14 | B16
0.37 | B17
0.5 | B18
0.67 | B19
0.43 | B20
0.75 | B21
1.36 | B22
0.43 | B23
0.64 | B24
0.52 | B25
1.12 | B26
2.5 | B27
1.43 | B28
0.69 | B29

Molecular target: Peptide 5: Biotin-…-[Tyr(PC)]-acid
Assay: scFv ELISA

OD450 [OD450] | Binder
0.24 | B1
0.44 | B2
1.77 | B3
0.99 | B4
0.82 | B5
0.63 | B6
0.81 | B7
1.6 | B8
1.64 | B9
0.66 | B10
1.09 | B11
0.57 | B12
1.49 | B13
0.71 | B14
0.35 | B15
0.75 | B16
0.6 | B17
0.81 | B18
0.71 | B19
0.91 | B20
0.95 | B21
1.66 | B22
0.87 | B23
0.61 | B24
0.79 | B25
1.08 | B26
2.11 | B27
1.39 | B28
1.01 | B29

Molecular target: T1, Peptide 4: …
Assay: scFv ELISA
Method: (§1) For ELISA analysis of scFv binding, 96-well polystyrene plates were coated with Peptide 1, 4, 5, 8 or 100 μL BSA (10 μg/mL) in PBS at 4° C. overnight. Plates were washed three times with PBS-Tween and blocked with 100 μL 1% BSA-TBS for 1 hour at room temperature. 96-well streptavidin coated plates were coated with 100 μL biotinylated PC-peptides (1 μg/mL) in PBS for 1 hour at room temperature.
(§2) All plates were washed three times with PBS-Tween before 40 μL aliquots of PPE were added to assay plates along with 50 μL 10% BSA, and plates were incubated for 1 hour at room temperature. After washing, […] HRP conjugated anti-V5 in 5% BSA was added, and plates were incubated at room temperature for 30 mins. Plates were washed and 100 μL TMB substrate was added. Color was left to develop at room temperature before the reaction was stopped with 100 μL 1N HCl. The amount of scFv bound to each well was quantitated from absorbance measurement at 450 nm (OD450).

OD450 [OD450] | Binder
0.05 | B1
0.05 | B2
0.05 | B3
0.05 | B4
0.05 | B5
0.05 | B6
0.06 | B7
0.05 | B8
0.05 | B9
0.06 | B10
0.05 | B11
0.05 | B12
0.06 | B13
0.05 | B14
0.05 | B15
0.05 | B16
0.05 | B17
0.04 | B18
0.06 | B19
0.05 | B20
0.06 | B21
0.05 | B22
0.06 | B23
0.05 | B24
0.04 | B25
0.05 | B26
0.06 | B27
0.05 | B28
0.05 | B29

Molecular target: T2, Peptide 8: …
Assay: scFv ELISA
Method: as §1, §2

OD450 [OD450] | Binder
0.04 | B1
0.04 | B2
0.05 | B3
0.09 | B4
0.05 | B5
0.1 | B6
0.06 | B7
0.05 | B8
0.05 | B9
0.05 | B10
0.05 | B11
0.05 | B12
0.05 | B13
0.04 | B14
0.05 | B15
0.04 | B16
0.05 | B17
0.04 | B18
0.05 | B19
0.05 | B20
0.05 | B21
0.05 | B22
0.05 | B23
0.05 | B24
0.04 | B25
0.05 | B26
0.06 | B27
0.05 | B28
0.04 | B29
